According to publication PMC4565748 (Molecular immunology, 2015):

Target: C3b (Homo sapiens, UniProt P01024)
Experiment: SPR direct binding to site-specifically immobilized C3b
Settings: SPR kinetic analysis, 1:1 Langmuir model

Sequence of C3b (P01024 23-667 limits assumed): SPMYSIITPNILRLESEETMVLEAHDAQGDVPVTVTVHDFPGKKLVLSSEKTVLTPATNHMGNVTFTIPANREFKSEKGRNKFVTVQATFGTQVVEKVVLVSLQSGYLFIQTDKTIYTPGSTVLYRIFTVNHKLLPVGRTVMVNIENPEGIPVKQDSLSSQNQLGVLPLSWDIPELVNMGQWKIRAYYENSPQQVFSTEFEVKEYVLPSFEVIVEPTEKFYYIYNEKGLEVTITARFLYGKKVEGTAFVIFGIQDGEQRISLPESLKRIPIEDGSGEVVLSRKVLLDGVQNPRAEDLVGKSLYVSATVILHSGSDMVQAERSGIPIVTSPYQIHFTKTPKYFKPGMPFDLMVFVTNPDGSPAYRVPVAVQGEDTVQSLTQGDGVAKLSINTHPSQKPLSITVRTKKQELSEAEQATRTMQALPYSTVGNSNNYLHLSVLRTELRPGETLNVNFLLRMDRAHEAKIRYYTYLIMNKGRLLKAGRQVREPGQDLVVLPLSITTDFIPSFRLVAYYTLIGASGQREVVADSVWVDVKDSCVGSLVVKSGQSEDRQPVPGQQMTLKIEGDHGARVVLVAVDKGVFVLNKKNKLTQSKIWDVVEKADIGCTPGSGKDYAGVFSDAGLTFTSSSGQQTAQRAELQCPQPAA
Sequence of C3b (P01024 749-1663 limits assumed): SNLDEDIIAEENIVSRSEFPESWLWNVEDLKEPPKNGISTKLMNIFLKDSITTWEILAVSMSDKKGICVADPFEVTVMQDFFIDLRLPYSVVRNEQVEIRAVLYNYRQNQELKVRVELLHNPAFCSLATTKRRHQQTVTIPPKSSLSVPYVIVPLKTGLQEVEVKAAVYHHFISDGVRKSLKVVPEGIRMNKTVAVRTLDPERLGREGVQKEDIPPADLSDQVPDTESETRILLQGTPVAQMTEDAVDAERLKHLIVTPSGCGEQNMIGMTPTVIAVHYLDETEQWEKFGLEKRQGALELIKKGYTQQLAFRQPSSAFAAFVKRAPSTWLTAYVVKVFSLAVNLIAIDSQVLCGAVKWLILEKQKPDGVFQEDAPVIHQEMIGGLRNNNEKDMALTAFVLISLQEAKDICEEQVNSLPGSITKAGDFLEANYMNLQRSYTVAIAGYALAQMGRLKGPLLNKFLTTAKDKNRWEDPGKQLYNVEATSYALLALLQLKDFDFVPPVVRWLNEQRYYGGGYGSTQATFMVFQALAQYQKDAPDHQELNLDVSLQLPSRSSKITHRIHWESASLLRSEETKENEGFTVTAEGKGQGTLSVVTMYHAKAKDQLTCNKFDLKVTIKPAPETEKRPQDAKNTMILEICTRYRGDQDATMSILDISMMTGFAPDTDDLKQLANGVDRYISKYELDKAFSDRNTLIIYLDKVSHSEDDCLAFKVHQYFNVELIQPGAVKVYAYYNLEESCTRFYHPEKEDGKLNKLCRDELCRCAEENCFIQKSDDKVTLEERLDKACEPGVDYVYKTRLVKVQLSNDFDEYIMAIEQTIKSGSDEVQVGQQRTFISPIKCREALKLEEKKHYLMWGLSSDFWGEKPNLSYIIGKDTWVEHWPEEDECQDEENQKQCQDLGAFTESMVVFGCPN

Row | Molecule | ka | kd
1 | SCIN-A: full-length staphylococcal complement inhibitor SCIN-A, Staphylococcus aureus strain Mu50 (protein) STSLPTSNEYQNEKLANELKSLLDELNVNELATGSLNTYYKRTIKISGQKAMYALKSKDFKKMSEAKYQLQKIYNEIDEALKSKY | (5.5 ± 0.15) × 10^5 M^−1s^−1 | (5.1 ± 0.52) × 10^−2 s^−1
2 | SCIN-A.R42A: full-length SCIN-A with Arg-42 alanine mutation (protein) STSLPTSNEYQNEKLANELKSLLDELNVNELATGSLNTYYKATIKISGQKAMYALKSKDFKKMSEAKYQLQKIYNEIDEALKSKY | (8.9 ± 0.15) × 10^4 M^−1s^−1 | (5.8 ± 0.45) × 10^−1 s^−1
3 | SCIN-A.Q49A (protein) STSLPTSNEYQNEKLANELKSLLDELNVNELATGSLNTYYKRTIKISGAKAMYALKSKDFKKMSEAKYQLQKIYNEIDEALKSKY | (7.6 ± 2.0) × 10^5 M^−1s^−1 | (5.1 ± 0.73) × 10^−2 s^−1
